Assay results reported in publication PMC7610652 (Nature structural & molecular biology, 2021).

T1: RPC1, subunit of human RNA polymerase III (human, UniProt O14802 1-1390)
T1 sequence: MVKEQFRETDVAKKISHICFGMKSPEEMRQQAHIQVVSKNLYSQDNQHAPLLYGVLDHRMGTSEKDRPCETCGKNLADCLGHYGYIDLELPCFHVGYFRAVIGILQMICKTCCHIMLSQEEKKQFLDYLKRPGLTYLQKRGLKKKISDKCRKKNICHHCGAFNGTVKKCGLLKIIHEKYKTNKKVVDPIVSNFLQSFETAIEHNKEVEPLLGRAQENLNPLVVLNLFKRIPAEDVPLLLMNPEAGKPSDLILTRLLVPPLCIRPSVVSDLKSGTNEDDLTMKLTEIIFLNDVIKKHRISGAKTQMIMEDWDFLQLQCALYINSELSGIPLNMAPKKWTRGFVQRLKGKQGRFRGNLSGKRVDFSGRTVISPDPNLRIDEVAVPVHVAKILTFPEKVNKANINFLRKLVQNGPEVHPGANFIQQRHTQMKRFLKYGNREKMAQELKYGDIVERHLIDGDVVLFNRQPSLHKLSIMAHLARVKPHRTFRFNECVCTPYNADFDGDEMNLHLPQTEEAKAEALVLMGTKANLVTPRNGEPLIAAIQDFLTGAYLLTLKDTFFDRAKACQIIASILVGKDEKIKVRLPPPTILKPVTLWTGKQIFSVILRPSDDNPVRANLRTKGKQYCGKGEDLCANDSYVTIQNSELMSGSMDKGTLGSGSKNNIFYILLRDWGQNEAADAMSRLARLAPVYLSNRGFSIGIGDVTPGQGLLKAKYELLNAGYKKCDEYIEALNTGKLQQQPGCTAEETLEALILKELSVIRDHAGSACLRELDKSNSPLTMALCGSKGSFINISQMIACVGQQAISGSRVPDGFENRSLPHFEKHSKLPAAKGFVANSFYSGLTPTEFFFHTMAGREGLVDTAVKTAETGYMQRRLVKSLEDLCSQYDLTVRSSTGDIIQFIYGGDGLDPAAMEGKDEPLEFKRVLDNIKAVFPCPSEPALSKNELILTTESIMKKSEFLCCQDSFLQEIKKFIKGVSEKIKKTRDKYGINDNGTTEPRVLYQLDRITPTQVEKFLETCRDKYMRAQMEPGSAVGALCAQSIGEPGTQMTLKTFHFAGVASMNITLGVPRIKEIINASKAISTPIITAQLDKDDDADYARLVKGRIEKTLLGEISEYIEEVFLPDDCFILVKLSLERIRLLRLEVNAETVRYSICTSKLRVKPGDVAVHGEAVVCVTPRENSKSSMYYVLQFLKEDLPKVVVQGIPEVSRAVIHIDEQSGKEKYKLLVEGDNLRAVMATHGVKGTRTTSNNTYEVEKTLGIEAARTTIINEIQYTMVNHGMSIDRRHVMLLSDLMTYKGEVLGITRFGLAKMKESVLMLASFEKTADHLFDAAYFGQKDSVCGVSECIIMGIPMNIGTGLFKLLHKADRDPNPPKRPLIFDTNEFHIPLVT

T2: RPC3, subunit of the human RNA polymerase III heterotrimer (human, UniProt Q9BUI4 1-534)
T2 sequence: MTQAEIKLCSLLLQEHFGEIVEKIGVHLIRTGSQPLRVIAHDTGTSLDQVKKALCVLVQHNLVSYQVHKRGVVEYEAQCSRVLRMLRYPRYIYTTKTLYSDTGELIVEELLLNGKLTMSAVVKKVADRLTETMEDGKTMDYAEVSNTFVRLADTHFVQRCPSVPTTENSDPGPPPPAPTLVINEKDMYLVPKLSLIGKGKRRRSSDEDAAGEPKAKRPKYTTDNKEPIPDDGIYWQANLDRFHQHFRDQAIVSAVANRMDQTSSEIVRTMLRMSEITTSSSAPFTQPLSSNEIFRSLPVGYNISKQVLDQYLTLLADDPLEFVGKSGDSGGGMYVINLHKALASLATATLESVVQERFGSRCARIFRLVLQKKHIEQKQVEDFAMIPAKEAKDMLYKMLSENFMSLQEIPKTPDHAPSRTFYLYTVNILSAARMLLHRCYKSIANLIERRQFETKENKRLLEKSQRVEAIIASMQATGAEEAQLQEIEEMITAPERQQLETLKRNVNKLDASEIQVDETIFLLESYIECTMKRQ

T3: RPC5, subunit of the human RNA polymerase III heterodimer (human, UniProt Q9NVU0 1-708)
T3 sequence: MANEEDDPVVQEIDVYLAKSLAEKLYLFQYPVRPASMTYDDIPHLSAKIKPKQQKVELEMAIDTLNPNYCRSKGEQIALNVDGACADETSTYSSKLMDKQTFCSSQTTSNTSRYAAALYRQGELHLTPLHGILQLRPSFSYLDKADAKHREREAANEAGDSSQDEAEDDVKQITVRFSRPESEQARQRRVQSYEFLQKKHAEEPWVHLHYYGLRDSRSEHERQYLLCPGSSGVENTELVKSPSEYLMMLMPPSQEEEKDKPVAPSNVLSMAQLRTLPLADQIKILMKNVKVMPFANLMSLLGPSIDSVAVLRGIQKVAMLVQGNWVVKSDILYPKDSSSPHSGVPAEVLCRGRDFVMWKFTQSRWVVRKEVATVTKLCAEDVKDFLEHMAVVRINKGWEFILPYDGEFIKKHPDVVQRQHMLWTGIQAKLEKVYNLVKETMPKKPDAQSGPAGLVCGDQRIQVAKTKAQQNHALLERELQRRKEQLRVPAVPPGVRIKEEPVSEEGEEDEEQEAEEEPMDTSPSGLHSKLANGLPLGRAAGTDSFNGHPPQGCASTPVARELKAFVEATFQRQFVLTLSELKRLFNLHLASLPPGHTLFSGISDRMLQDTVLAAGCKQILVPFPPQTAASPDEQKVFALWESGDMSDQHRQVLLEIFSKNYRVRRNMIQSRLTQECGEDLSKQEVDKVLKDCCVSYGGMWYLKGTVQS

B1: RPC4, subunit of the human RNA polymerase III heterodimer (natural protein)
chain: MSEGNAAGEPSTPGGPRPLLTGARGLIGRRPAPPLTPGRLPSIRSRDLTLGGVKKKTFTPNIISRKIKEEPKEEVTVKKEKRERDRDRQREGHGRGRGRPEVIQSHSIFEQGPAEMMKKKGNWDKTVDVSDMGPSHIINIKKEKRETDEETKQILRMLEKDDFLDDPGLRNDTRNMPVQLPLAHSGWLFKEENDEPDVKPWLAGPKEEDMEVDIPAVKVKEEPRDEEEEAKMKAPPKAARKTPGLPKDVSVAELLRELSLTKEEELLFLQLPDTLPGQPPTQDIKPIKTEVQGEDGQVVLIKQEKDREAKLAENACTLADLTEGQVGKLLIRKSGRVQLLLGKVTLDVTMGTACSFLQELVSVGLGDSRTGEMTVLGHVKHKLVCSPDFESLLDHKHR
B2: RPC7α, subunit of the human RNA polymerase III heterotrimer (natural protein)
chain: MAGNKGRGRAAYTFNIEAVGFSKGEKLPDVVLKPPPLFPDTDYKPVPLKTGEGEEYMLALKQELRETMKRMPYFIETPEERQDIERYSKRYMKVYKEEWIPDWRRLPREMMPRNKCKKAGPKPKKAKDAGKGTPLTNTEDVLKKMEELEKRGDGEKSDEENEEKEGSKEKSKEGDDDDDDDAAEQEEYDEEEQEEENDYINSYFEDGDDFGADSDDNMDEATY

Assays:
Experiment in all cases: cryo-EM structure
[1] = biological target: T1, RPC1, subunit of human RNA polymerase …
[2] = biological target: T2, RPC3, subunit of the human RNA …
[3] = biological target: B2
[4] = biological target: T3, RPC5, subunit of the human RNA …
[5] = biological target: B1

binding result [1]	binding result [2]	binding result [3]	binding result [4]	binding result [5]	Binder
binds	binds	–	–	–	RPC6, subunit of the human RNA polymerase III heterotrimer (natural protein) MAEVKVKVQPPDADPVEIENRIIELCHQFPHGITDQVIQNEMPHIEAQQRAVAINRLLSMGQLDLLRSNTGLLYRIKDSQNAGKMKGSDNQEKLVYQIIEDAGNKGIWSRDIRYKSNLPLTEINKILKNLESKKLIKAVKSVAASKKKVYMLYNLQPDRSVTGGAWYSDQDFESEFVEVLNQQCFKFLQSKAETARESKQNPMIQRNSSFASSHEVWKYICELGISKVELSMEDIETILNTLIYDGKVEMTIIAAKEGTVGSVDGHMKLYRAVNPIIPPTGLVRAPCGLCPVFDDCHEGGEISPSNCIYMTEWLEF
–	–	binds	–	–	RPC8, stalk subunit of human RNA polymerase III (natural protein) MFVLVEMVDTVRIPPWQFERKLNDSIAEELNKKLANKVVYNVGLCICLFDITKLEDAYVFPGDGASHTKVHFRCVVFHPFLDEILIGKIKGCSPEGVHVSLGFFDDILIPPESLQQPAKFDEAEQVWVWEYETEEGAHDLYMDTGEEIRFRVVDESFVDTSPTGPSSADATTSSEELPKKEAPYTLVGSISEPGLGLLSWWTSN
binds	–	–	binds	–	B1
binds	binds	–	–	–	B2
binds	–	–	binds	binds	RPC10, TFIIS-like subunit of human RNA polymerase III (natural protein) not shown
